Test results published in PMC7445770.

Target: RNA polymerase (RNAP), core enzyme without sigma factor (E. coli (endogenous in the cell-free extract))

Kσ28: dissociation constant obtained by fitting a nonlinear ODE model to GFP/mRNA time-series responses of the pTar-tetO combinatorial promoter in E. coli TX-TL cell-free extract (29°C)	Kσ70: dissociation constant obtained by fitting a nonlinear ODE model to GFP/mRNA time-series responses of the pTar-tetO combinatorial promoter in E. coli TX-TL cell-free extract (29°C)	Substance
5.3 pM	–	sigma factor 28 (from UniProt P0AEM6 1-239) (natural protein)
–	0.0018 pM	sigma factor 70 (from UniProt P00579 1-613) (natural protein)
